Data reported in US20230407373A1 (priority 2020, published 2023).
Where two headings read alike, the source gives them in different places.

B1: DDX1: host protein, UniProt Q92499 (protein, UniProt Q92499 1-740, looked up)
ATP-dependent RNA helicase …: MAAFSEMGVMPEIAQAVEEMDWLLPTDIQAESIPLILGGGDVLMAAETGSGKTGAFSIPVIQIVYETLKDQQEGKKGKTTIKTGASVLNKWQMNPYDRGSAFAIGSDGLCCQSREVKEWHGCRATKGLMKGKHYYEVSCHDQGLCRVGWSTMQASLDLGTDKFGFGFGGTGKKSHNKQFDNYGEEFTMHDTIGCYLDIDKGHVKFSKNGKDLGLAFEIPPHMKNQALFPACVLKNAELKFNFGEEEFKFPPKDGFVALSKAPDGYIVKSQHSGNAQVTQTKFLPNAPKALIVEPSRELAEQTLNNIKQFKKYIDNPKLRELLIIGGVAARDQLSVLENGVDIVVGTPGRLDDLVSTGKLNLSQVRFLVLDEADGLLSQGYSDFINRMHNQIPQVTSDGKRLQVIVCSATLHSFDVKKLSEKIMHFPTWVDLKGEDSVPDTVHHVVVPVNPKTDRLWERLGKSHIRTDDVHAKDNTRPGANSPEMWSEAIKILKGEYAVRAIKEHKMDQAIIFCRTKIDCDNLEQYFIQQGGGPDKKGHQFSCVCLHGDRKPHERKQNLERFKKGDVRFLICTDVAARGIDIHGVPYVINVTLPDEKQNYVHRIGRVGRAERMGLAISLVATEKEKVWYHVCSSRGKGCYNTRLKEDGGCTIWYNEMQLLSEIEEHLNCTISQVEPDIKVPVDEFDGKVTYGQKRAAGGGSYKGHVDILAPTVQELAALEKEAQTSFLHLGYLPNQLFRTF
B2: HNRNPH2: host protein, UniProt P55795 (protein, UniProt P55795 1-449, looked up)
Heterogeneous nuclear …: MMLSTEGREGFVVKVRGLPWSCSADEVMRFFSDCKIQNGTSGIRFIYTREGRPSGEAFVELESEEEVKLALKKDRETMGHRYVEVFKSNSVEMDWVLKHTGPNSPDTANDGFVRLRGLPFGCSKEEIVQFFSGLEIVPNGMTLPVDFQGRSTGEAFVQFASQEIAEKALKKHKERIGHRYIEIFKSSRAEVRTHYDPPRKLMAMQRPGPYDRPGAGRGYNSIGRGAGFERMRRGAYGGGYGGYDDYGGYNDGYGFGSDRFGRDLNYCFSGMSDHRYGDGGSSFQSTTGHCVHMRGLPYRATENDIYNFFSPLNPMRVHIEIGPDGRVTGEADVEFATHEDAVAAMAKDKANMQHRYVELFLNSTAGTSGGAYDHSYVELFLNSTAGASGGAYGSQMMGGMGLSNQSSYGGPASQQLSGGYGGGYGGQSSMSGYDQVLQENSSDYQSNLA
B3: TXN (protein, UniProt P10599 2-105, looked up)
Thioredoxin: VKQIESKTAFQEALDAAGDKLVVVDFSATWCGPCKMIKPFFHSLSEKYSNVIFLEVDVDDCQDVASECEVKCMPTFQFFKKGQKVGEFSGANKEKLEATINELV
B4: EIF2AK2 (protein, UniProt P19525 2-551, looked up)
Interferon-induced, …: AGDLSAGFFMEELNTYRQKQGVVLKYQELPNSGPPHDRRFTFQVIIDGREFPEGEGRSKKEAKNAAAKLAVEILNKEKKAVSPLLLTTTNSSEGLSMGNYIGLINRIAQKKRLTVNYEQCASGVHGPEGFHYKCKMGQKEYSIGTGSTKQEAKQLAAKLAYLQILSEETSVKSDYLSSGSFATTCESQSNSLVTSTLASESSSEGDFSADTSEINSNSDSLNSSSLLMNGLRNNQRKAKRSLAPRFDLPDMKETKYTVDKRFGMDFKEIELIGSGGFGQVFKAKHRIDGKTYVIKRVKYNNEKAEREVKALAKLDHVNIVHYNGCWDGFDYDPETSDDSLESSDYDPENSKNSSRSKTKCLFIQMEFCDKGTLEQWIEKRRGEKLDKVLALELFEQITKGVDYIHSKKLIHRDLKPSNIFLVDTKQVKIGDFGLVTSLKNDGKRTRSKGTLRYMSPEQISSQDYGKEVDLYALGLILAELLHVCDTAFETSKFFTDLRDGIISDIFDKKEKTLLQKLLSKKPEDRPNTSEILRTLTVWKKSPEKNERHTC
B5: TOP1 (protein, UniProt P11387 2-765, looked up)
DNA topoisomerase 1: SGDHLHNDSQIEADFRLNDSHKHKDKHKDREHRHKEHKKEKDREKSKHSNSEHKDSEKKHKEKEKTKHKDGSSEKHKDKHKDRDKEKRKEEKVRASGDAKIKKEKENGFSSPPQIKDEPEDDGYFVPPKEDIKPLKRPRDEDDADYKPKKIKTEDTKKEKKRKLEEEEDGKLKKPKNKDKDKKVPEPDNKKKKPKKEEEQKWKWWEEERYPEGIKWKFLEHKGPVFAPPYEPLPENVKFYYDGKVMKLSPKAEEVATFFAKMLDHEYTTKEIFRKNFFKDWRKEMTNEEKNIITNLSKCDFTQMSQYFKAQTEARKQMSKEEKLKIKEENEKLLKEYGFCIMDNHKERIANFKIEPPGLFRGRGNHPKMGMLKRRIMPEDIIINCSKDAKVPSPPPGHKWKEVRHDNKVTWLVSWTENIQGSIKYIMLNPSSRIKGEKDWQKYETARRLKKCVDKIRNQYREDWKSKEMKVRQRAVALYFIDKLALRAGNEKEEGETADTVGCCSLRVEHINLHPELDGQEYVVEFDFLGKDSIRYYNKVPVEKRVFKNLQLFMENKQPEDDLFDRLNTGILNKHLQDLMEGLTAKVFRTYNASITLQQQLKELTAPDENIPAKILSYNRANRAVAILCNHQRAPPKTFEKSMMNLQTKIDAKKEQLADARRDLKSAKADAKVMKDAKTKKVVESKKKAVQRLEEQLMKLEVQATDREENKQIALGTSKLNYLDPRITVAWCKKWGVPIEKIYNKTQREKFAWAIDMADEDYEF
B6: LRRC59 (protein, UniProt Q96AG4 1-307, looked up)
Leucine-rich …: MTKAGSKGGNLRDKLDGNELDLSLSDLNEVPVKELAALPKATILDLSCNKLTTLPSDFCGLTHLVKLDLSKNKLQQLPADFGRLVNLQHLDLLNNKLVTLPVSFAQLKNLKWLDLKDNPLDPVLAKVAGDCLDEKQCKQCANKVLQHMKAVQADQERERQRRLEVEREAEKKREAKQRAKEAQERELRKREKAEEKERRRKEYDALKAAKREQEKKPKKEANQAPKSKSGSRPRKPPPRKHTRSWAVLKLLLLLLLFGVAGGLVACRVTELQQQPLCTSVNTIYDNAVQGLRRHEILQWVLQTDSQQ
B7: XRN2: host protein, UniProt Q9H0D6 (protein, UniProt Q9H0D6 1-950, looked up)
5'-3' exoribonuclease 2: MGVPAFFRWLSRKYPSIIVNCVEEKPKECNGVKIPVDASKPNPNDVEFDNLYLDMNGIIHPCTHPEDKPAPKNEDEMMVAIFEYIDRLFSIVRPRRLLYMAIDGVAPRAKMNQQRSRRFRASKEGMEAAVEKQRVREEILAKGGFLPPEEIKERFDSNCITPGTEFMDNLAKCLRYYIADRLNNDPGWKNLTVILSDASAPGEGEHKIMDYIRRQRAQPNHDPNTHHCLCGADADLIMLGLATHEPNFTIIREEFKPNKPKPCGLCNQFGHEVKDCEGLPREKKGKHDELADSLPCAEGEFIFLRLNVLREYLERELTMASLPFTFDVERSIDDWVFMCFFVGNDFLPHLPSLEIRENAIDRLVNIYKNVVHKTGGYLTESGYVNLQRVQMIMLAVGEVEDSIFKKRKDDEDSFRRRQKEKRKRMKRDQPAFTPSGILTPHALGSRNSPGSQVASNPRQAAYEMRMQNNSSPSISPNTSFTSDGSPSPLGGIKRKAEDSDSEPEPEDNVRLWEAGWKQRYYKNKFDVDAADEKFRRKVVQSYVEGLCWVLRYYYQGCASWKWYYPFHYAPFASDFEGIADMPSDFEKGTKPFKPLEQLMGVFPAASGNFLPPSWRKLMSDPDSSIIDFYPEDFAIDLNGKKYAWQGVALLPFVDERRLRAALEEVYPDLTPEETRRNSLGGDVLFVGKHHPLHDFILELYQTGSTEPVEVPPELCHGIQGKFSLDEEAILPDQIVCSPVPMLRDLTQNTVVSINFKDPQFAEDYIFKAVMLPGARKPAAVLKPSDWEKSSNGRQWKPQLGFNRDRRPVHLDQAAFRTLGHVMPRGSGTGIYSNAAPPPVTYQGNLYRPLLRGQAQIPKLMSNMRPQDSWRGPPPLFQQQRFDRGVGAEPLLPWNRMLQTQNAAFQPNQYQMLAGPGGYPPRRDDRGGRQGYPREGRKYPLPPPSGRYNWN
B8: SRSF10 (protein, UniProt O75494 1-262, looked up)
Serine/arginine-rich splicing …: MSRYLRPPNTSLFVRNVADDTRSEDLRREFGRYGPIVDVYVPLDFYTRRPRGFAYVQFEDVRDAEDALHNLDRKWICGRQIEIQFAQGDRKTPNQMKAKEGRNVYSSSRYDDYDRYRRSRSRSYERRRSRSRSFDYNYRRSYSPRNSRPTGRPRRSRSHSDNDRFKHRNRSFSRSKSNSRSRSKSQPKKEMKAKSRSRSASHTKTRGTSKTDSKTHYKSGSRYEKESRKKEPPRSKSQSRSQSRSRSKSRSRSWTSPKSSGH

What was measured:
gRNA of HCoV-OC43 = format: binding; settings: for target (spectral count) / background (spectral count): type g_36_m, 36 hpi, Probe I; for target (spectral count): HCoV-OC43-infected HCT-8 cells; for background (spectral count): uninfected-probe control; for target (spectral count, OC43 Probe I RNP capture) / background (spectral count, no-probe control): type n_48_v: 48 hours post-infection; for target (spectral count, OC43 Probe I RNP capture): infected cells, unweighted spectral count; for background (spectral count, no-probe control): no-probe control on infected cells
HCoV-OC43 gRNA and sgRNA = format: binding; settings: for target (unweighted spectral count, OC43 Probe II capture) / target (unweighted spectral count): tested against no-probe control; for target (unweighted spectral count, OC43 Probe II capture): FDR<10%; for target (unweighted spectral count): OC43 Probe II, infected cells; for target (unweighted spectral count, OC43 Probe II) / background (unweighted spectral count, no-probe control): type n_48_v, 48 hpi; for target (unweighted spectral count, OC43 Probe II): OC43 Probe II capture on infected cells; for background (unweighted spectral count, no-probe control): no-probe control on infected cells; for target (spectral count) / background (spectral count): type s_36_m, Probe II; for target (spectral count): HCoV-OC43-infected HCT-8 cells; for background (spectral count): uninfected-probe control

Molecule	target (spectral count) (gRNA of HCoV-OC43)	background (spectral count) (gRNA of HCoV-OC43)	target (spectral count, OC43 Probe I RNP capture) (gRNA of HCoV-OC43)	background (spectral count, no-probe control) (gRNA of HCoV-OC43)	target (unweighted spectral count, OC43 Probe II capture) (HCoV-OC43 gRNA and sgRNA; 36 hpi, type n_36_v)	target (unweighted spectral count) (HCoV-OC43 gRNA and sgRNA; 24 hpi (type n_24_v))	target (unweighted spectral count, OC43 Probe II) (HCoV-OC43 gRNA and sgRNA)	background (unweighted spectral count, no-probe control) (HCoV-OC43 gRNA and sgRNA)	target (spectral count) (HCoV-OC43 gRNA and sgRNA; 36 hpi)	background (spectral count) (HCoV-OC43 gRNA and sgRNA; 36 hpi)	target (unweighted spectral count, OC43 Probe II capture) (HCoV-OC43 gRNA and sgRNA; 24 hpi, type n_24_v)	target (unweighted spectral count) (HCoV-OC43 gRNA and sgRNA; 12 hpi (type n_12_v))
B1	12	1	12	1	9	7	11	1	9	1	–	–
B2	12	1	10	1	8	–	10	1	8	1	4	–
B3	–	–	8	1	6	–	–	–	–	–	–	–
B4	–	–	8	1	4	–	8	1	–	–	–	–
B5	–	–	12	2	14	12	–	–	–	–	–	31
B6	–	–	9	1	6	–	5	1	–	–	–	–
B7	8	1	9	1	–	–	10	1	–	–	–	–
B8	–	–	9	1	6	6	9	1	–	–	–	–
